In patent US20260201020A1, “METHODS FOR EXPRESSION OF FUSION-FREE BOVINE ULTRALONG CDR3 SCAFFOLD” (priority 2022, published 2026):
Values joined by “and” are separate entries in the source; they are usually repeats but may differ in a detail not shown here. Equal entries are not always repeated. Where two headings read alike, the source gives them in different places.

How the values were obtained:
[1] = Capillary isoelectric focusing (cIEF), isoelectric point; format: physicochemical; settings: non-reduced; mature knob expression, 2 L scale
Description: Capillary isoelectric focusing (cIEF): 2 mg/mL knob protein samples were diluted 2-fold by combining 30 microliter of sample with 30 μL of Milli-Q water. 20 μL of the diluted sample was added to 180 μL of Master Mix comprised of: 35% of 1% Methyl cellulose, 10 mM of 0.5M Arginine, 10 mM of 0.25M Iminodiacetic acid, 4% of pI 3-10 Pharmalyte solution, 1% of pI 4.05 marker, 1% of pI 9.5 marker, 2M of 8M Urea, and Milli-Q water. The total amount of 200 μL was then aliquoted into the sample plate for iCIEF analysis. Separation of the analyte occurs in the Maurice capillary cIEF cartridge (Bio-techne PN: PS-MC02-C) set to 55 seconds of sample load, and 1 min at 1500 V then 15 min at 3000 V. Both absorbance and fluorescence detection settings were enabled. Absorbance exposure time was set to 0.005 seconds, while fluorescence exposure times were set to 3, 5, 10, 20 and 40 seconds. Data processing was performed by Compass for iCE software (Version: 2.1.0, Build ID: 0226) from Bio-techne.

spike RBD = spike RBD (Severe acute respiratory syndrome coronavirus 2, UniProt P0DTC2)
[2] = molecular target: SARS-CoV-2-Spike receptor binding domain protein (RBD) (Severe acute respiratory syndrome coronavirus 2, UniProt P0DTC2)
[3] = molecular target: SARS-CoV-2 Spike RBD (SARS-CoV-2), P0DTC2
[4] = molecular target: SARS-CoV-2 Spike RBD (SARS-CoV-2), P0DTC2; remark: listed apart in the source
[5] = molecular target: SARS-CoV-2 Spike RBD (SARS-CoV-2), P0DTC2; remark: listed apart in the source
[6] = molecular target: SARS-CoV-2 Spike RBD (SARS-CoV-2), P0DTC2; remark: listed apart in the source
[7] = molecular target: SARS-CoV-2 Spike RBD (SARS-CoV-2), P0DTC2; remark: listed apart in the source
[8] = molecular target: SARS-CoV-2 Spike RBD (SARS-CoV-2), P0DTC2; remark: listed apart in the source
[9] = molecular target: SARS-CoV-2 Spike RBD (SARS-CoV-2), P0DTC2; remark: listed apart in the source
[10] = molecular target: SARS-CoV-2 Spike RBD (SARS-CoV-2), P0DTC2; remark: listed apart in the source
[11] = molecular target: SARS-CoV-2 Spike RBD (SARS-CoV-2), P0DTC2; remark: listed apart in the source
[12] = molecular target: SARS-CoV-2 Spike RBD (SARS-CoV-2), P0DTC2; remark: listed apart in the source
[13] = molecular target: SARS-CoV-2 Spike RBD (SARS-CoV-2), P0DTC2; remark: listed apart in the source
[14] = molecular target: SARS-CoV-2 Spike RBD (SARS-CoV-2), P0DTC2; remark: listed apart in the source
[15] = molecular target: SARS-CoV-2 Spike RBD (SARS-CoV-2), P0DTC2; remark: listed apart in the source
[16] = molecular target: SARS-CoV-2 Spike RBD (SARS-CoV-2), P0DTC2; remark: listed apart in the source
[17] = molecular target: SARS-CoV-2 Spike RBD (SARS-CoV-2), P0DTC2; remark: listed apart in the source
[18] = molecular target: SARS-CoV-2 Spike RBD (SARS-CoV-2), P0DTC2; remark: listed apart in the source
[19] = molecular target: SARS-CoV-2 Spike RBD (SARS-CoV-2), P0DTC2; remark: listed apart in the source
[20] = molecular target: SARS-CoV-2 Spike RBD (SARS-CoV-2), P0DTC2; remark: listed apart in the source
[21] = molecular target: SARS-CoV-2 Spike RBD (SARS-CoV-2), P0DTC2; remark: listed apart in the source
[22] = molecular target: SARS-CoV-2 Spike RBD (SARS-CoV-2), P0DTC2; remark: listed apart in the source
[23] = molecular target: SARS-CoV-2 Spike RBD (SARS-CoV-2), P0DTC2; remark: listed apart in the source
[24] = molecular target: SARS-CoV-2 Spike RBD (SARS-CoV-2), P0DTC2; remark: listed apart in the source
[25] = molecular target: SARS-CoV-2 Spike RBD (SARS-CoV-2), P0DTC2; remark: listed apart in the source
[26] = molecular target: SARS-CoV-2 Spike RBD (SARS-CoV-2), P0DTC2; remark: listed apart in the source
[27] = molecular target: SARS-CoV-2 Spike RBD (SARS-CoV-2), P0DTC2; remark: listed apart in the source
[28] = molecular target: SARS-CoV-2 Spike RBD (SARS-CoV-2), P0DTC2; remark: listed apart in the source

In the case of “R2F12-mini (GGSNACPDDFDYRCSCIGGCGCARKGCVGPLCCRSDLGGYLTDSPA)”, the “Isoelectric Point (pI) Determination by iCEF” value [1] is reported as 5.15 (non-reduced), the “binding activity to spike RBD” value (spike RBD) is reported as “maintain binding activity” and the “Amino Acid Sequence of Binding Epitopes to Spike RBD Protein as determined by HDX Analysis: Major Epitope” value [2] is reported as 154-194 (Major and 154-192 (Major.

For “R2G3-mini (GSTCPDGYEHTCGCIGGCGCKRSACIGALCCQASLGGWLS)”, the “Isoelectric Point (pI) Determination by iCEF” value [1] was 7.37 (non-reduced), the “binding activity to spike RBD” value (spike RBD) was “maintain binding activity” and the “Amino Acid Sequence of Binding Epitopes to Spike RBD Protein as determined by HDX Analysis: Major Epitope” value [2] was 154-192 (Major and 154-194 (Major. The “RBD amino acid sequence with maximum protection against deuterium uptake” value [2] was 158-184.

B1: R2F12-His (peptide)
chain: GGGGAMGSKTKNACPDDFDYRCSCIGGCGCARKGCVGPLCCRSDLGGYLTDSPAYIYLGGGGSGGGGSHHHHHH
modifications: not checked
Molecule B1 has an Adjusted Binding Rate [3] of 4.69 nm/s, an Adjusted Binding Rate [4] of 2.76 nm/s and an Adjusted Binding Rate [5] of 3.54 nm/s. The Adjusted Binding Rate [6] was 9.6 nm/s, the Adjusted Binding Rate [7] was 0.8 nm/s and the Adjusted Binding Rate [8] was 9.3 nm/s. The Adjusted Binding Rate [9] was 2.38 nm/s, the Adjusted Binding Rate [10] was 3.86 nm/s and the Adjusted Binding Rate [11] was 2.68 nm/s. For the same molecule, the Adjusted Binding Rate [12] was 0.5 nm/s, the Adjusted Binding Rate [13] was 1.3 nm/s and the Adjusted Binding Rate [14] was 0.62 nm/s. It also gave an Adjusted Binding Rate [15] of 0.8 nm/s, an Adjusted Binding Rate [16] of 3.61 nm/s and an Adjusted Binding Rate [17] of 1.62 nm/s. The Adjusted Binding Rate [18] was 14.9 nm/s, the Adjusted Binding Rate [19] was 1.67 nm/s and the Adjusted Binding Rate [20] was 2.69 nm/s. It also gave an Adjusted Binding Rate [21] of 3.6 nm/s, an Adjusted Binding Rate [22] of 5.37 nm/s and an Adjusted Binding Rate [23] of 3.32 nm/s. For the same molecule, the Adjusted Binding Rate [24] was 1.33 nm/s, the Adjusted Binding Rate [25] was 2.46 nm/s and the Adjusted Binding Rate [26] was 2.11 nm/s. It also gave an Adjusted Binding Rate [27] of 4.7 nm/s and an Adjusted Binding Rate [28] of 0.4 nm/s.
